Test results from the supplement of paper PMC11811203.

B1: THAP1; numbered along this chain (parent)
chain: MVQSCSAYGCKNRYDKDKPVSFHKFPLTRPSLCKEWEAAVRRKNFKPTKYSSICSEHFTPDCFKRECNNKLLKENAVPTIFLCTEPHDKKEDLLEPQEQLPPPPLPPPVSQVDAAIGLLMPPLQTPVNLSVFCDHNYTVEDTMHQRKRIHQLEQQVEKLRKKLKTAQQRCRRQERQLEKLKEVVHFQKEKDDVSERGYVILPNDYFEIVEVPA

Variants of: B1
Assay: THAP1 transcriptional activity (GFP+/GFP- enrichment relative to wild-type constructs) (ratio to WT); higher = more THAP1 activity (PSMB5 reporter activation)
Settings: with PSMB5 promoter-GFP reporter
Method in brief: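 A site-saturation library of human THAP1 (residues 2–213, each changed to all 20 amino acids) was transduced by lentivirus at MOI ~0.3, in duplicate, into THAP1-knockout HEK-293T cells carrying mClover3 knocked in at endogenous PSMB5. After five days, BFP+ cells were sorted into GFP-dim and GFP-bright bins, and variants were counted by Illumina sequencing of genomic DNA amplicons. Activity is the replicate-mean bright/dim read fold change divided by the mean of wild-type synonymous constructs.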

| Variant | THAP1 transcriptional activity |
| --- | --- |
| MVQSCSAYGCKNRYDKDKPVSFHKFPLTRPSLCKEWEAAVRRKNFKPTKYSSICSEHFTPDCFKRECVNKLLKENAVPTIFLCTEPHDKKEDLLEPQEQLPPPPLPPPVSQVDAAIGLLMPPLQTPVNLSVFCDHNYTVEDTMHQRKRIHQLEQQVEKLRKKLKTAQQRCRRQERQLEKLKEVVHFQKEKDDVSERGYVILPNDYFEIVEVPA [N68V] | 0.125 |
| MVQSCSAYGCKNRYDKDKPVSFHKFPLTRPSLCKEWEAAVRRKNFKPTKYSSICSEHFTPDCFKRECNNKLLKENAVPTIFLCTEPHDKKEDLLEPQEQLPPPPGPPPVSQVDAAIGLLMPPLQTPVNLSVFCDHNYTVEDTMHQRKRIHQLEQQVEKLRKKLKTAQQRCRRQERQLEKLKEVVHFQKEKDDVSERGYVILPNDYFEIVEVPA [L105G] | 1.09 |
| MVQSCSAYGCKNRYDKDKDVSFHKFPLTRPSLCKEWEAAVRRKNFKPTKYSSICSEHFTPDCFKRECNNKLLKENAVPTIFLCTEPHDKKEDLLEPQEQLPPPPLPPPVSQVDAAIGLLMPPLQTPVNLSVFCDHNYTVEDTMHQRKRIHQLEQQVEKLRKKLKTAQQRCRRQERQLEKLKEVVHFQKEKDDVSERGYVILPNDYFEIVEVPA [P19D] | 0.681 |
| MVQSCSAYFCKNRYDKDKPVSFHKFPLTRPSLCKEWEAAVRRKNFKPTKYSSICSEHFTPDCFKRECNNKLLKENAVPTIFLCTEPHDKKEDLLEPQEQLPPPPLPPPVSQVDAAIGLLMPPLQTPVNLSVFCDHNYTVEDTMHQRKRIHQLEQQVEKLRKKLKTAQQRCRRQERQLEKLKEVVHFQKEKDDVSERGYVILPNDYFEIVEVPA [G9F] | 0.148 |
| MVQSCSAYGCKNRYDKDKPVSFHKFPLTRPSLCKEWEAAVRRKNFKPTKYSSICSEHFTPDCFKRECNNKLLKENAVPTIFLCTEPHDKKEDLLEPQEQLPPPPLPPPVSQVDAAIGLLMPPLQTPVNLSVFCDHNYTVEDTMHQRKRIHQLEQQVEKLRKKLKTAQQRCRRQEIQLEKLKEVVHFQKEKDDVSERGYVILPNDYFEIVEVPA [R175I] | 0.699 |
| MVQSCSAYGCKNRYDKDKPVSFHKFPMTRPSLCKEWEAAVRRKNFKPTKYSSICSEHFTPDCFKRECNNKLLKENAVPTIFLCTEPHDKKEDLLEPQEQLPPPPLPPPVSQVDAAIGLLMPPLQTPVNLSVFCDHNYTVEDTMHQRKRIHQLEQQVEKLRKKLKTAQQRCRRQERQLEKLKEVVHFQKEKDDVSERGYVILPNDYFEIVEVPA [L27M] | 0.41 |
| MVQSCSAYGCKNRYDKDKPVSFHKRPLTRPSLCKEWEAAVRRKNFKPTKYSSICSEHFTPDCFKRECNNKLLKENAVPTIFLCTEPHDKKEDLLEPQEQLPPPPLPPPVSQVDAAIGLLMPPLQTPVNLSVFCDHNYTVEDTMHQRKRIHQLEQQVEKLRKKLKTAQQRCRRQERQLEKLKEVVHFQKEKDDVSERGYVILPNDYFEIVEVPA [F25R] | 0.106 |
| MVQSCSAYGCKNRYDKDKPVSFHKFPLTRPSLCKEWEAAVRRKNFKPTKYSSICSEHFTPDCFKRECNNKLLKENAVPTIFLCTEPHDKKEDLLEPQEQLPPPPLPPPVSQVDAAIGLLMPPLQTPVNLSVFCDHNYTVEDTMHQRKRIHQLEQQVEKLRKKLKTAQQRCRRQERQLEKLKEVVHFQKEKDDMSERGYVILPNDYFEIVEVPA [V193M] | 0.559 |
| MVQSCSAYGCKNRYDKDKPVSFHKFPLTRPSLCKEWEAAVRRKNFKPTKYSSICSEHFTPDCFKRECNNKLLKENAVPTIFLCTEPHDKKEDLLEPQEQLPPPPLPPPVSQVDAAIGLLMPPLQTPVNLSVFCDHNYTVEDTMHQRKRIHQLEQQVEKLRKKLKTAQSRCRRQERQLEKLKEVVHFQKEKDDVSERGYVILPNDYFEIVEVPA [Q168S] | 0.477 |
| MVQSCSAYGCKNRYDKDKPVSFHKFPLTRPSLCKEWEAAVRRKNFKPTKYSSICSEHFTPDCFWRECNNKLLKENAVPTIFLCTEPHDKKEDLLEPQEQLPPPPLPPPVSQVDAAIGLLMPPLQTPVNLSVFCDHNYTVEDTMHQRKRIHQLEQQVEKLRKKLKTAQQRCRRQERQLEKLKEVVHFQKEKDDVSERGYVILPNDYFEIVEVPA [K64W] | 0.0652 |
| MVQSCSAYGCKNRYDKDKPVSFHKFPLTRPSLCKEWEAAVRRKNFKPTKYSSICSEHFTPDCFHRECNNKLLKENAVPTIFLCTEPHDKKEDLLEPQEQLPPPPLPPPVSQVDAAIGLLMPPLQTPVNLSVFCDHNYTVEDTMHQRKRIHQLEQQVEKLRKKLKTAQQRCRRQERQLEKLKEVVHFQKEKDDVSERGYVILPNDYFEIVEVPA [K64H] | 0.0785 |
| MVQSCSAYGCKNRYDKDKPVSFHKFPLTRPSLCKEWEAAVRRKNFKPTKYSSICSEHFTPDCFKRECNNKLLKENAVPTIFLCTEPHDKKEDLLEPQEQLPPPPLPPPVSQVDAAIGLLMPPLATPVNLSVFCDHNYTVEDTMHQRKRIHQLEQQVEKLRKKLKTAQQRCRRQERQLEKLKEVVHFQKEKDDVSERGYVILPNDYFEIVEVPA [Q124A] | 0.569 |
| MVQSCSAYGCKNRYDKDKPVSFHKFPLTRPSLCKEWEAAVRRKNFKPTKYSSICSEHFTPDCFKRECNNKLLKENAVPTIFLCTEPHDKKEDLLEPQEQLPPPPLPPPVSQVDAAIGLLMPPLQTPVNLSVFCDHNYTVEDTMHQRKRIHQLEQQVEKLREKLKTAQQRCRRQERQLEKLKEVVHFQKEKDDVSERGYVILPNDYFEIVEVPA [K161E] | 0.167 |
| MVQSCSAYGCKNRYDKDKPVSFHKFPLTRPSLCKEWEAAVRRKNFKPTKYSSICSEHFTPDCFKRECNNKLLKENAVPTIFLCTEPHDKKEDLLEPQEQLPPPPLPPPVSQVDAAIGLLMPPLQTPVNLSVFCDHNYTVEDTMHQRKRIHQLEQQVEKLRYKLKTAQQRCRRQERQLEKLKEVVHFQKEKDDVSERGYVILPNDYFEIVEVPA [K161Y] | 0.195 |
| MVQSCSAYGCKNRYDKDKPVSFHKFPLTRPSLCKEWEAAVRRKNFKPTKYSSICSEAFTPDCFKRECNNKLLKENAVPTIFLCTEPHDKKEDLLEPQEQLPPPPLPPPVSQVDAAIGLLMPPLQTPVNLSVFCDHNYTVEDTMHQRKRIHQLEQQVEKLRKKLKTAQQRCRRQERQLEKLKEVVHFQKEKDDVSERGYVILPNDYFEIVEVPA [H57A] | 0.116 |
| MVQSCSAYGCKNRYDKDKPVSFHKFPLTRPSLCKEWEAAVRRKNFKPTKYSSICSEHFTPDCFKRECNNKLLKENAVPTIFLCTEPHDKKEDLLEPQEQLPPPPLPPPVSQVDAAIGLLMPPLQTPVNLSVFCDHNYTVEDTMHQRKRIHQLEQQVEKLRKKLKTAGQRCRRQERQLEKLKEVVHFQKEKDDVSERGYVILPNDYFEIVEVPA [Q167G] | 0.21 |
| MVQSCSAYGCKNRYDKDKPVSFHKFPLTRPSLCKEWEAAVRRKNFKPTKYSSICSEHFTPDCFKRECNNKLLKENAVPTIFLCTEPHDKKEDLLEPQEQLPPPPLPPPVSQVDAAIGLLMPPLQTPVNLSVFCDHNYTVEDTMHQRKRIHQLEQQVEKLRKQLKTAQQRCRRQERQLEKLKEVVHFQKEKDDVSERGYVILPNDYFEIVEVPA [K162Q] | 0.612 |
| MVQSCSAYGCKNRYDKDKPVSFHKFPLTRPSLCKEWEAAVRRKNFKPTKYSSICSEHFTPDCFKRECNNKLLKENAVPDIFLCTEPHDKKEDLLEPQEQLPPPPLPPPVSQVDAAIGLLMPPLQTPVNLSVFCDHNYTVEDTMHQRKRIHQLEQQVEKLRKKLKTAQQRCRRQERQLEKLKEVVHFQKEKDDVSERGYVILPNDYFEIVEVPA [T79D] | 0.228 |
| MVQSCSAYGCKNRYDKDKPVSFHKFPLTRPSLVKEWEAAVRRKNFKPTKYSSICSEHFTPDCFKRECNNKLLKENAVPTIFLCTEPHDKKEDLLEPQEQLPPPPLPPPVSQVDAAIGLLMPPLQTPVNLSVFCDHNYTVEDTMHQRKRIHQLEQQVEKLRKKLKTAQQRCRRQERQLEKLKEVVHFQKEKDDVSERGYVILPNDYFEIVEVPA [C33V] | 0.301 |
| MVQSCSAYGCKNRYDKDKPVSFHKFPLTRPSLCKEWEAAVRRKNFKPTKISSICSEHFTPDCFKRECNNKLLKENAVPTIFLCTEPHDKKEDLLEPQEQLPPPPLPPPVSQVDAAIGLLMPPLQTPVNLSVFCDHNYTVEDTMHQRKRIHQLEQQVEKLRKKLKTAQQRCRRQERQLEKLKEVVHFQKEKDDVSERGYVILPNDYFEIVEVPA [Y50I] | 0.112 |
| MVQSCSAYGCKNRYDKDKPVSFHKFPLTRPSLCKEWEAAVRRKNFKPTKYSSICSEHFTPDCFKRECNNKLLKENAVPTIFLCTEPHDKKEDLLEPQEQLPPPPLPPPVSQVDAAIGLLMPPLQTPVNLSVFCDHNYTVEDTMHQRKRIHQLEQQVEKLRKKLKTAQQRCRRQERQLEKLKEVVHFQKRKDDVSERGYVILPNDYFEIVEVPA [E189R] | 0.881 |
| MVQSCSAYGCKNRYDKDKPVSFGKFPLTRPSLCKEWEAAVRRKNFKPTKYSSICSEHFTPDCFKRECNNKLLKENAVPTIFLCTEPHDKKEDLLEPQEQLPPPPLPPPVSQVDAAIGLLMPPLQTPVNLSVFCDHNYTVEDTMHQRKRIHQLEQQVEKLRKKLKTAQQRCRRQERQLEKLKEVVHFQKEKDDVSERGYVILPNDYFEIVEVPA [H23G] | 0.088 |
| MVQSCSAYGCKNRYDKDKPVSFHKFPLTRPSLCNEWEAAVRRKNFKPTKYSSICSEHFTPDCFKRECNNKLLKENAVPTIFLCTEPHDKKEDLLEPQEQLPPPPLPPPVSQVDAAIGLLMPPLQTPVNLSVFCDHNYTVEDTMHQRKRIHQLEQQVEKLRKKLKTAQQRCRRQERQLEKLKEVVHFQKEKDDVSERGYVILPNDYFEIVEVPA [K34N] | 0.391 |
| MVQSCSAYGCKNRYDKDKPVSFHKFPLTRPSLCKEWEAAVRRKNFKPTKYSSICSEHFTPDCFKRECNNKLLKENAVPTIFLCTEPHDKKEDLLEPQEQLPPPPLPPPVSQVDAAIGLLMPPLQTPVNLSVFCDHNYTVEDTMHQRKRIHQLEQQVEKLRKKLKTAQQACRRQERQLEKLKEVVHFQKEKDDVSERGYVILPNDYFEIVEVPA [R169A] | 0.297 |
| MVQSCSAYGCKNRYDKDKPVSFHKFPLTRPSLCKEWEAAVRRKNFKPTKYSSICSEHFTPDCFKRECNNKLLKENAVPTIFLCTEPHDKKYDLLEPQEQLPPPPLPPPVSQVDAAIGLLMPPLQTPVNLSVFCDHNYTVEDTMHQRKRIHQLEQQVEKLRKKLKTAQQRCRRQERQLEKLKEVVHFQKEKDDVSERGYVILPNDYFEIVEVPA [E91Y] | 0.85 |
| MVQSCSAYGCKNRYDKDKPVSFHKFPLTRPSLCKEWEAAVRRKNFKPTKYSSICSEHFTPDCFKRECNNKLLKENAVPTIFLCTEPHDKKEDLLEPQEQLPPPPLPPPVSQVDAAIGLLMPPLQTPVNLSVFCDHNYTVEDTMHQRKRIHRLEQQVEKLRKKLKTAQQRCRRQERQLEKLKEVVHFQKEKDDVSERGYVILPNDYFEIVEVPA [Q151R] | 1.12 |
| MVQSCSAYGCKNRYDKDKPVSFHKFPLTRPSLCKEWEAAVRRKNFKPTKYSSICSEHFTPDCFKRECNNKLLKENAVPTIFLCTEPHDKKEDLIEPQEQLPPPPLPPPVSQVDAAIGLLMPPLQTPVNLSVFCDHNYTVEDTMHQRKRIHQLEQQVEKLRKKLKTAQQRCRRQERQLEKLKEVVHFQKEKDDVSERGYVILPNDYFEIVEVPA [L94I] | 2.23 |
| MVQSCSAYGCKNRYDKDKPVSFHKFPLTRPSLCKEWEAAVRRKNFKPTKYSSICSEHFTPDCFKRECNNKLLKENAVPTIFLCEEPHDKKEDLLEPQEQLPPPPLPPPVSQVDAAIGLLMPPLQTPVNLSVFCDHNYTVEDTMHQRKRIHQLEQQVEKLRKKLKTAQQRCRRQERQLEKLKEVVHFQKEKDDVSERGYVILPNDYFEIVEVPA [T84E] | 4.49 |
